Non-standard residues stand in square brackets, D forms with d. No end group written: not given here.
Tests used:
[1] = target: T1, PBX proteins of murine B16 melanoma cells (mouse (murine B16 melanoma cells), UniProt P41778 1-430, limits assumed); assay: cell-based or functional assay
T1 sequence (looked up): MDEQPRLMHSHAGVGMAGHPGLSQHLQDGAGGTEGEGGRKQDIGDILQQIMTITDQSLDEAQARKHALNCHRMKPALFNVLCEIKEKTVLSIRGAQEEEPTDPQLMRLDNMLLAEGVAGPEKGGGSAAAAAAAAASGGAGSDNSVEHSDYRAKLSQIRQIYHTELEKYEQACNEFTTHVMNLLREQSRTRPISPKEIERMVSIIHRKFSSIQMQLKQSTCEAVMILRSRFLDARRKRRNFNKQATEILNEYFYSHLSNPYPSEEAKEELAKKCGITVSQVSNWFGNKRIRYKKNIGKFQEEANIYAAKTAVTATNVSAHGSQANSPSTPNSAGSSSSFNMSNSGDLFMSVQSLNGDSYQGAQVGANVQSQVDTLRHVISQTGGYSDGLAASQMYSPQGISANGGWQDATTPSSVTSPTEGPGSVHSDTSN

[2] = target: PBX proteins of human cancer cell lines (A549, LNCaP, SK-OV3, A498, J82) (human (human cell lines)); assay: cell-based or functional assay

B1: HXArg9(2D) (peptide)
peptide: [dW]YPWMKKHHRRRRRRRR[dR]
IC50 (µM), MTT assay, B16F10 [1]: 20 µM | IC50 (µM), MTT assay, A498 [2]: 24 µM | IC50 (µM), MTT assay, A549 [2]: 19 µM | IC50 (µM), MTT assay, J82 [2]: 22 µM | IC50 (µM), MTT assay, LNCaP [2]: 21 µM | IC50 (µM), MTT assay, SK-OV3 [2]: 22 µM
